# Results as given in patent publication US20110275122A1 (Amgen, published 2011).
# T1: human mpl receptor (human, UniProt P40238 26-635)
# T1 sequence (looked up): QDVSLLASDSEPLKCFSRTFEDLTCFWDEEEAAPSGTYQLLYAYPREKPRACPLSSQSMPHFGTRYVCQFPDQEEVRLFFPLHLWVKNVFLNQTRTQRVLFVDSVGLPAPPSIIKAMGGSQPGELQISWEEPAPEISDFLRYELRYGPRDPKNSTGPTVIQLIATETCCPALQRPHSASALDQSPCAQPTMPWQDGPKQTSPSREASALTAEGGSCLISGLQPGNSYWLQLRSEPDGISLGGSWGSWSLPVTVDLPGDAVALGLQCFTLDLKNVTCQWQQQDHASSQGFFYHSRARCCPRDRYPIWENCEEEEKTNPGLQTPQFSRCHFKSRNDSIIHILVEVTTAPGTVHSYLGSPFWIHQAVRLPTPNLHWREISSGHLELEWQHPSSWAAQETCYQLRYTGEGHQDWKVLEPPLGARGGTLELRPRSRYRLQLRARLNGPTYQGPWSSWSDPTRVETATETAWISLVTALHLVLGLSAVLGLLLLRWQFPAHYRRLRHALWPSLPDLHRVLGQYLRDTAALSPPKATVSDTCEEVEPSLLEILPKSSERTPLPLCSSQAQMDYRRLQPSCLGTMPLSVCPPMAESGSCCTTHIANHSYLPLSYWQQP
# T2: c-mpl receptor (Homo sapiens (Human), UniProt P40238 26-491, The MPL used for panning was biotinylated; the biotin site is not stated and is not carried by the letters.)
# T2 construct: also called TPO receptor
# T2 sequence: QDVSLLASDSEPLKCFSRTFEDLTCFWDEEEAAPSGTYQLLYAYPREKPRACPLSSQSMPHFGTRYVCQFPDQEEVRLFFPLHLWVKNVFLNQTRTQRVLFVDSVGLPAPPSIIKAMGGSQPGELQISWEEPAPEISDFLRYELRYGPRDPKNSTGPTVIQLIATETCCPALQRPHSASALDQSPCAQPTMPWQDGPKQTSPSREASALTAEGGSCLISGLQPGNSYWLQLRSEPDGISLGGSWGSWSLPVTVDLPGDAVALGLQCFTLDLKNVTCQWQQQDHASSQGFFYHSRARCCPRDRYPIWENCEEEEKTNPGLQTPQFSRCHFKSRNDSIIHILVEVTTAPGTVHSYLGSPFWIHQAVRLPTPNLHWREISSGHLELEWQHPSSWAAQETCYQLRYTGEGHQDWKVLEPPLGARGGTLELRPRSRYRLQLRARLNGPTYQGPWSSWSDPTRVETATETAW
# Biological target: T1, human mpl receptor
# Test: cell-based or functional assay
row,EC50 on 32Dc123/Mpl,Binder
1,15 pM,Fc-Loop (Sym) (SEQ ID NO: 9) (Fc fusion) MDKTHTCPPCPAPELLGGPSVFLFPPKPKDTLMISRTPEVTCVVVDVSHEDPEVKFNWYVDGVEVHNAKTKPREEQYNSTYRVVSVLTVLHQDWLNGKEYKCKVSNKALPAPIEKTISKAKGQPREPQVYTLPPSRDELGGQGCSSGGPTLREWQQCRRMQHSGGTKNQVSLTCLVKGFYPSDIAVEWESNGQPENNYKTTPPVLDSDGSFFLYSKLTVDKSRWQQGNVFSCSVMHEALHNHYTQKSLSLSPGK
2,10 pM,Fc-Loop (Sym) (SEQ ID NO: 243) (Fc fusion) MDKTHTCPPCPAPELLGGPSVFLFPPKPKDTLMISRTPEVTCVVVDVSHEDPEVKFNWYVDGVEVHNAKTKPREEQYNSTYRVVSVLTVLHQDWLNGKEYKCKVSNKALPAPIEKTISKAKGQPREPQVYTLPPSRDELGGQGCSSGGPTLREWQQCVRMQHSGGTKNQVSLTCLVKGFYPSDIAVEWESNGQPENNYKTTPPVLDSDGSFFLYSKLTVDKSRWQQGNVFSCSVMHEALHNHYTQKSLSLSPGK
3,12 pM,Fc-Loop (Sym)(SEQ ID NO: 244) (Fc fusion) MDKTHTCPPCPAPELLGGPSVFLFPPKPKDTLMISRTPEVTCVVVDVSHEDPEVKFNWYVDGVEVHNAKTKPREEQYNSTYRVVSVLTVLHQDWLNGKEYKCKVSNKALPAPIEKTISKAKGQPREPQVYTLPPSRDELGGQGCSSGGPTLREWQQCRRAQHSGGTKNQVSLTCLVKGFYPSDIAVEWESNGQPENNYKTTPPVLDSDGSFFLYSKLTVDKSRWQQGNVFSCSVMHEALHNHYTQKSLSLSPGK
4,13 pM,Fc-Loop (Asym) (SEQ ID NO: 9) (Fc fusion) MDKTHTCPPCPAPELLGGPSVFLFPPKPKDTLMISRTPEVTCVVVDVSHEDPEVKFNWYVDGVEVHNAKTKPREEQYNSTYRVVSVLTVLHQDWLNGKEYKCKVSNKALPAPIEKTISKAKGQPREPQVYTLPPSRDELGGGGQGCSSGGPTLREWQQCRRMQHSGGTKNQVSLTCLVKGFYPSDIAVEWESNGQPENNYKTTPPVLDSDGSFFLYSKLTVDKSRWQQGNVFSCSVMHEALHNHYTQKSLSLSPGK
5,6 pM,Fc-Loop (Asym) (SEQ ID NO: 243) (Fc fusion) MDKTHTCPPCPAPELLGGPSVFLFPPKPKDTLMISRTPEVTCVVVDVSHEDPEVKFNWYVDGVEVHNAKTKPREEQYNSTYRVVSVLTVLHQDWLNGKEYKCKVSNKALPAPIEKTISKAKGQPREPQVYTLPPSRDELGGGGQGCSSGGPTLREWQQCVRMQHSGGTKNQVSLTCLVKGFYPSDIAVEWESNGQPENNYKTTPPVLDSDGSFFLYSKLTVDKSRWQQGNVFSCSVMHEALHNHYTQKSLSLSPGK

# Biological target: T2, c-mpl receptor
# Test: phage-ELISA
row,Relative activity,Binder
1,12.1,IEGPTFKQWQRLRKNHS [SEQ ID NO: 329]
2,64.5,IEGPTLHEWLRQRRQHS [SEQ ID NO: 336]
3,14.7,IEGPTFKQWQKWRLSHS [SEQ ID NO: 323]
4,80.7,IEGPTLHEWLALLRSHS [SEQ ID NO: 333]
5,73.7,IEGPTLHEWLLYRRAHS [SEQ ID NO: 335]
6,117,IEGPSLPEWLHVWRHHS [SEQ ID NO: 331]
7,75.9,IEGPTLHEWLAQRREHS [SEQ ID NO: 334]
8,7.11,IEGLLSQLWQAARA [SEQ ID NO: 330]
9,12.6,IEGPTFKQWQLWRLQHS [SEQ ID NO: 327]
10,88.4,IEGPTLHEWLAERRKHS [SEQ ID NO: 332]
11,21.6,IEGPTFKQWQALRKRHS [SEQ ID NO: 318]
12,17.9,IEGPTFKQWQKLRLGHS [SEQ ID NO: 319]
13,13.2,SEQ ID NO: 326 (peptide) peptide: IEGNYWFWQQVGQENTLSREWIQTLGQKYWYRPPSICAQIEGWSRHQHYSAMSGHS
14,16.4,IEGWIWRQWLMQTLWHS [SEQ ID NO: 321]
15,17.8,IEGPTFKQWQLMGFPHS [SEQ ID NO: 320]
16,13.8,IEGWQEGRQSAARA [SEQ ID NO: 324]
17,16.4,IEGPTFKQWQAMRKNHS [SEQ ID NO: 322]
18,13.5,IEGPTFKQWQRWLKYHS [SEQ ID NO: 325]
19,24.9,IEVWQSHWYQAARALESTSSRLLPMRPPPSICAQIEGPTLPQRMAARA [SEQ ID NO: 316]

# Biological target: T1, human mpl receptor
# Test: cell-based or functional assay
# Remark: another data set of the same source
row,In vitro EC50,Binder
1,13.7 pM,Fc-Loop (Sym) (SEQ ID NO: 9) (Fc fusion) MDKTHTCPPCPAPELLGGPSVFLFPPKPKDTLMISRTPEVTCVVVDVSHEDPEVKFNWYVDGVEVHNAKTKPREEQYNSTYRVVSVLTVLHQDWLNGKEYKCKVSNKALPAPIEKTISKAKGQPREPQVYTLPPSRDELGGQGCSSGGPTLREWQQCRRMQHSGGTKNQVSLTCLVKGFYPSDIAVEWESNGQPENNYKTTPPVLDSDGSFFLYSKLTVDKSRWQQGNVFSCSVMHEALHNHYTQKSLSLSPGK
2,9.9 pM,Fc-Loop (Sym) (SEQ ID NO: 243) (Fc fusion) MDKTHTCPPCPAPELLGGPSVFLFPPKPKDTLMISRTPEVTCVVVDVSHEDPEVKFNWYVDGVEVHNAKTKPREEQYNSTYRVVSVLTVLHQDWLNGKEYKCKVSNKALPAPIEKTISKAKGQPREPQVYTLPPSRDELGGQGCSSGGPTLREWQQCVRMQHSGGTKNQVSLTCLVKGFYPSDIAVEWESNGQPENNYKTTPPVLDSDGSFFLYSKLTVDKSRWQQGNVFSCSVMHEALHNHYTQKSLSLSPGK
3,12.7 pM,Fc-Loop (Asym) (SEQ ID NO: 9) (Fc fusion) MDKTHTCPPCPAPELLGGPSVFLFPPKPKDTLMISRTPEVTCVVVDVSHEDPEVKFNWYVDGVEVHNAKTKPREEQYNSTYRVVSVLTVLHQDWLNGKEYKCKVSNKALPAPIEKTISKAKGQPREPQVYTLPPSRDELGGGGQGCSSGGPTLREWQQCRRMQHSGGTKNQVSLTCLVKGFYPSDIAVEWESNGQPENNYKTTPPVLDSDGSFFLYSKLTVDKSRWQQGNVFSCSVMHEALHNHYTQKSLSLSPGK
4,5.7 pM,Fc-Loop (Asym) (SEQ ID NO: 243) (Fc fusion) MDKTHTCPPCPAPELLGGPSVFLFPPKPKDTLMISRTPEVTCVVVDVSHEDPEVKFNWYVDGVEVHNAKTKPREEQYNSTYRVVSVLTVLHQDWLNGKEYKCKVSNKALPAPIEKTISKAKGQPREPQVYTLPPSRDELGGGGQGCSSGGPTLREWQQCVRMQHSGGTKNQVSLTCLVKGFYPSDIAVEWESNGQPENNYKTTPPVLDSDGSFFLYSKLTVDKSRWQQGNVFSCSVMHEALHNHYTQKSLSLSPGK
